Laboratory results: the supplement of paper PMC7125110
± gives the standard error. This sample holds only a part of the variants without activity.

B1: glmS ribozyme (parent)
chain: AUAAAAGCGCCAGAACUACAGAAAUGUAGUUGACGAGGAGGAGGUUUAUCGAAUUUUCGGCGGAUGCCUCCAAA

How the values were obtained:
Conditions in all cases: with glucosamine-6-phosphate
[1] = variants of: B1; assay: self-cleavage kobs at 40 uM GlcN6P; higher = faster cleavage; RNA array
Method in brief: (§1)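 Weighted Michaelis–Menten fits across concentrations supplied kcat and KM, based on kobs from one- or two-exponential decay fits to normalised per-tile medians. The data came from barcoded ribozyme variants transcribed in situ by E. coli RNA polymerase on sequenced MiSeq chips and tracked at 37 °C by a hybridised Cy3 probe. Glucosamine-6-phosphate (40 μM to 10 mM) in HEPES/KCl/Mg(OAc)2 buffer was flowed in.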

[2] = variants of: B1; assay: self-cleavage kobs at 10000 uM GlcN6P; higher = faster cleavage; RNA array
Method in brief: as §1

[3] = variants of: B1; assay: self-cleavage kobs at 160 uM GlcN6P; higher = faster cleavage; RNA array
Method in brief: as §1

[4] = variants of: B1; assay: self-cleavage kobs at 640 uM GlcN6P; higher = faster cleavage; RNA array
Method in brief: as §1

[5] = variants of: B1; assay: self-cleavage kobs at 2500 uM GlcN6P; higher = faster cleavage; RNA array
Method in brief: as §1

Row | Variant | self-cleavage kobs at 40 uM GlcN6P [1] [s⁻¹] | self-cleavage kobs at 10000 uM GlcN6P [2] [s⁻¹] | self-cleavage kobs at 160 uM GlcN6P [3] [s⁻¹] | self-cleavage kobs at 640 uM GlcN6P [4] [s⁻¹] | self-cleavage kobs at 2500 uM GlcN6P [5] [s⁻¹]
1 | G43U A48G C70G | < 1e-05 | < 1e-05 |  |  | 
2 | C34G A52C | < 1e-05 | < 1e-05 | < 1e-05 | < 1e-05 | < 1e-05
3 | C10A U49A C61U G62U | < 1e-05 |  |  |  | 
4 | A14G G29A | 0.000403 ± 6.2e-05 | 0.0317 ± 0.0076 |  | 0.00394 ± 0.00079 | 0.00353 ± 0.00081
5 | A14G G38U C50U | < 1e-05 |  |  |  | 
6 | A14G C67U | 0.000746 ± 0.00014 |  | 0.00183 ± 0.00033 | 0.00612 ± 0.00075 | 0.0171 ± 0.0057
7 | A12U U57A G59C G60C | < 1e-05 |  |  |  | 
8 | A12U G37A C61G C70A | < 1e-05 | < 1e-05 |  |  | 
9 | C34G U55C | < 1e-05 | < 1e-05 | < 1e-05 | < 1e-05 | < 1e-05
10 | G7A G43U | < 1e-05 | < 1e-05 | < 1e-05 | < 1e-05 | < 1e-05
11 | A12U A33G G63A | < 1e-05 |  |  |  | 
12 | G7A G21U A33G C67U U69G | 8.76e-05 ± 2.2e-05 | 0.000115 ± 1.8e-05 |  |  | 
13 | C11U G51A | < 1e-05 |  |  |  | < 1e-05
14 | A42U U56C G60U | < 1e-05 |  |  |  | 
15 | C11G A33G G40C | < 1e-05 | < 1e-05 |  |  | 
16 | C8U G9U U30G A64C | < 1e-05 | < 1e-05 |  |  | 
17 | A12U G13C C34U G62A U65G | < 1e-05 |  |  |  | 
18 | A14G A48C C68A | < 1e-05 | < 1e-05 | < 1e-05 |  | 
19 | U31C U49G C67U | < 1e-05 |  |  |  | 
20 | G35U A42U | < 1e-05 |  | < 1e-05 | < 1e-05 | < 1e-05
21 | G9U G44U | < 1e-05 | < 1e-05 |  | < 1e-05 | < 1e-05
22 | A33C G44C | < 1e-05 | < 1e-05 | < 1e-05 | < 1e-05 | < 1e-05
23 | C11G G37C | < 1e-05 | < 1e-05 |  |  | 
24 | G29A A36G | < 1e-05 |  | < 1e-05 | < 1e-05 | < 1e-05

Row | Variant | self-cleavage kobs at 40 uM GlcN6P [1] [s⁻¹] | self-cleavage kobs at 10000 uM GlcN6P [2] [s⁻¹] | self-cleavage kobs at 160 uM GlcN6P [3] [s⁻¹] | self-cleavage kobs at 640 uM GlcN6P [4] [s⁻¹] | self-cleavage kobs at 2500 uM GlcN6P [5] [s⁻¹]
25 | G32U C67U C70U | < 1e-05 |  |  |  | 
26 | G37U U65G G66U | < 1e-05 |  |  |  | 
27 | G51U G59A | < 1e-05 | < 1e-05 |  |  | 
28 | C10A C11G G60U C61G | < 1e-05 | < 1e-05 |  |  | 
29 | G7C G41U C50G | < 1e-05 |  |  |  | 
30 | C11A C16G A36U G40A U55A U56A | < 1e-05 | < 1e-05 |  |  | 
31 | G13A A64U | < 1e-05 | < 1e-05 |  | < 1e-05 | < 1e-05
32 | U31G G32U | 5.84e-05 ± 1e-05 | 0.00232 ± 0.00036 |  | 0.000363 ± 7.2e-05 | 0.000925 ± 0.00026
33 | C11A G44U | < 1e-05 |  | < 1e-05 | < 1e-05 | < 1e-05
34 | G29C A36G G51C | < 1e-05 |  |  |  | 
35 | A12U G38A G41A A64G | < 1e-05 | < 1e-05 |  |  | 
36 | C8A G37C U69G C71G | 0.000455 ± 0.00017 |  |  |  | 
37 | U49G C58G | < 1e-05 |  |  |  | 
38 | U49C U57A | < 1e-05 |  |  |  | 
39 | C11G A14G A39U | < 1e-05 |  |  |  | 
40 | C50A G62A A64C | < 1e-05 | < 1e-05 |  |  | 
41 | C8U A14G C16U | < 1e-05 | < 1e-05 |  |  | 
42 | A39C C50U A64G | < 1e-05 |  |  |  | 
43 | G7U U57G C61A C68U C70U | 5.84e-05 ± 2.5e-05 |  |  |  | 
44 | G7A C16A U31C G32U G41C | < 1e-05 |  |  |  | 
45 | G41A C68U | < 1e-05 | 2.09e-05 ± 8.7e-06 | < 1e-05 |  | 1.85e-05 ± 7.6e-06
46 | U56C G63U | < 1e-05 | < 1e-05 | < 1e-05 |  | 
47 | G29C A42C G43C U54A | < 1e-05 |  |  |  | 
48 | U30G G44C | < 1e-05 | 3.93e-05 ± 1.1e-05 | < 1e-05 |  | 

Row | Variant | self-cleavage kobs at 40 uM GlcN6P [1] [s⁻¹] | self-cleavage kobs at 10000 uM GlcN6P [2] [s⁻¹] | self-cleavage kobs at 160 uM GlcN6P [3] [s⁻¹] | self-cleavage kobs at 640 uM GlcN6P [4] [s⁻¹] | self-cleavage kobs at 2500 uM GlcN6P [5] [s⁻¹]
49 | U31A G62C C70G | < 1e-05 |  |  |  | 
50 | A33G C50U | < 1e-05 | < 1e-05 |  | < 1e-05 | 
51 | G44A G59A | < 1e-05 | < 1e-05 | < 1e-05 | < 1e-05 | 
52 | A33C C34A | < 1e-05 | < 1e-05 | < 1e-05 | < 1e-05 | < 1e-05
53 | A6C A52G A53G | < 1e-05 |  |  |  | 
54 | A15U G29U U54G | 7.25e-05 ± 1.8e-05 | 0.00243 ± 0.00048 |  |  | 
55 | G13C U45C U46A | < 1e-05 | < 1e-05 | < 1e-05 | < 1e-05 | 
56 | G32U A36G | < 1e-05 | < 1e-05 | < 1e-05 | < 1e-05 | < 1e-05
57 | G41A G59C C68A | < 1e-05 | < 1e-05 |  |  | < 1e-05
58 | G9C C34G | < 1e-05 | < 1e-05 | < 1e-05 | < 1e-05 | < 1e-05
59 | C8G U31A U57A | < 1e-05 | < 1e-05 |  |  | < 1e-05
60 | G44U G66U | < 1e-05 | < 1e-05 | < 1e-05 | < 1e-05 | < 1e-05
61 | A6C G32A C34U U54G C58U G66A | < 1e-05 | < 1e-05 |  |  | 
62 | U31A C71G | 4.17e-05 ± 1e-05 | 0.000728 ± 0.00011 | 0.000162 ± 3.4e-05 | 0.000196 ± 3.4e-05 | 0.000225 ± 4.8e-05
63 | A48U C61A | < 1e-05 | < 1e-05 | < 1e-05 |  | 
64 | G38C U56G | < 1e-05 |  | < 1e-05 | < 1e-05 | < 1e-05
65 | A6U A48C C50U A52U C61U C67G C68G | < 1e-05 |  |  |  | 
66 | C8G U65G C68A | < 1e-05 |  |  |  | < 1e-05
67 | C10U A64C | < 1e-05 |  |  | < 1e-05 | < 1e-05
68 | G35C A52C | < 1e-05 | < 1e-05 | < 1e-05 | < 1e-05 | < 1e-05
69 | A6G G35C | < 1e-05 | < 1e-05 | < 1e-05 | < 1e-05 | < 1e-05
70 | U56C C61U C71U | < 1e-05 |  |  |  | 
71 | A33U C50G C61A | 0.000105 ± 2e-05 | 0.000139 ± 2.7e-05 |  |  | 
72 | G9C G63A A64C C70G | < 1e-05 | < 1e-05 |  |  | 

Row | Variant | self-cleavage kobs at 40 uM GlcN6P [1] [s⁻¹] | self-cleavage kobs at 10000 uM GlcN6P [2] [s⁻¹] | self-cleavage kobs at 160 uM GlcN6P [3] [s⁻¹] | self-cleavage kobs at 640 uM GlcN6P [4] [s⁻¹] | self-cleavage kobs at 2500 uM GlcN6P [5] [s⁻¹]
73 | C10A G13A U30C G40A | < 1e-05 |  |  |  | 
74 | G13C G35C A39U | < 1e-05 |  |  |  | 
75 | A52C A64U | < 1e-05 | < 1e-05 | < 1e-05 | < 1e-05 | < 1e-05
76 | A6C A15G U45G | < 1e-05 |  | < 1e-05 |  | 
77 | U65A U69C | 5.26e-05 ± 1.5e-05 | 0.000843 ± 0.00023 |  | 0.00019 ± 8.3e-05 | 0.00117 ± 0.00044
78 | G9A U57G | < 1e-05 |  | < 1e-05 | < 1e-05 | < 1e-05
79 | A36U U55G | < 1e-05 |  |  |  | 
80 | G41U G43C | < 1e-05 |  | < 1e-05 | < 1e-05 | < 1e-05
81 | G44A C70G | < 1e-05 | < 1e-05 | < 1e-05 | < 1e-05 | < 1e-05
82 | U56A G62C | < 1e-05 | < 1e-05 |  |  | < 1e-05
83 | A14G G37A A42U U69A | 0.000165 ± 2.5e-05 | 0.0157 ± 0.0032 |  | 0.00196 ± 0.00035 | 
84 | G44A G59U C71A | < 1e-05 | < 1e-05 | < 1e-05 | < 1e-05 | < 1e-05
85 | G7C C11U | < 1e-05 | < 1e-05 | < 1e-05 | < 1e-05 | < 1e-05
86 | G60U G63U | < 1e-05 | < 1e-05 | < 1e-05 | < 1e-05 | 
87 | C10G U57G | < 1e-05 | < 1e-05 |  | < 1e-05 | < 1e-05
88 | G59A G60U | < 1e-05 | < 1e-05 |  | < 1e-05 | < 1e-05
89 | A12G A52C C67G C71U | < 1e-05 |  |  |  | < 1e-05
90 | G9C A14G | < 1e-05 | < 1e-05 | < 1e-05 | < 1e-05 | < 1e-05
91 | A15C A53U G62A | < 1e-05 | < 1e-05 |  |  | < 1e-05
92 | C11U U49C | < 1e-05 |  | < 1e-05 | < 1e-05 | < 1e-05
93 | C10U A48C | < 1e-05 | < 1e-05 | < 1e-05 | < 1e-05 | < 1e-05
